Data published in US20230210940A1 (published 2023).
No end group written: not given here. *: point of attachment. FITC = O=C1OC2(c3ccc(O)cc3Oc3cc(O)ccc32)c2ccc(NC(=S)*)cc21; Ahx = NCCCCCC(=O)O

Target: T1, CD13 (human, UniProt P15144 2-967)
T1 construct: whole, on cells; Endogenous CD13 on the cell membrane, detected with PE-labeled anti-human CD13 antibody clone WM-15; also called human CD13
Assay: Example 2 incubated with HT-1080 cells, anti-FITC immunoprecipitation, Western blot with anti-CD13 antibody WM-15
Procedure: Example 2 (80 μg/400 μL) reacted to HT-1080 cells (40 million cells) at 4° C. for 2 hours. The cells were then washed with PBS, and centrifuged. The centrifuged cells were dissolved in 1,000 μL of IP Lysis/Wash buffer (Thermo Fisher Scientific) with Halt Protease & Phosphatase inhibitor Single-Use Cocktail, ETDA-Free (Thermo Fisher Scientific) (10 μL) at 4° C. for 5 minutes. It was centrifuged at 4° C. for 10 minutes and the supernatant was collected. The supernatant was adjusted to be 1 mg in amount of protein and 80 μL of A/G agarose was added to it. The mixture was stirred at 4° C. for 1 hour and then centrifuged for 1 minute. Thus, a pre-treatment solution was obtained. 10 μg of IgG Fraction Monoclonal Mouse Anti-Fluorescein (FITC) (Jackson ImmunoResearch) or 10 μg of Mouse IgG Isotype Control (Thermo Fisher Scientific) was each added to the pre-treatment solution (1 mg/600 μL), and the mixtures were shaken at 4° C. overnight. Subsequently, 20 μL of A/G agarose was added and the mixtures were shaken at 4° C. for 2 hours. The mixtures were washed three times with the wash buffer described above and 20 μL of 2×Non-reducing Lane Marker Sample Buffer (Thermo Fisher Scientific) was added to the A/G agaroses. […]
The 10% solution used in immunoprecipitation was loaded to the left lane of FIG. 3. […] CD13 was not detected on the right lane, but CD 13 was detected on the center lane.

T1 sequence (P15144 2-967): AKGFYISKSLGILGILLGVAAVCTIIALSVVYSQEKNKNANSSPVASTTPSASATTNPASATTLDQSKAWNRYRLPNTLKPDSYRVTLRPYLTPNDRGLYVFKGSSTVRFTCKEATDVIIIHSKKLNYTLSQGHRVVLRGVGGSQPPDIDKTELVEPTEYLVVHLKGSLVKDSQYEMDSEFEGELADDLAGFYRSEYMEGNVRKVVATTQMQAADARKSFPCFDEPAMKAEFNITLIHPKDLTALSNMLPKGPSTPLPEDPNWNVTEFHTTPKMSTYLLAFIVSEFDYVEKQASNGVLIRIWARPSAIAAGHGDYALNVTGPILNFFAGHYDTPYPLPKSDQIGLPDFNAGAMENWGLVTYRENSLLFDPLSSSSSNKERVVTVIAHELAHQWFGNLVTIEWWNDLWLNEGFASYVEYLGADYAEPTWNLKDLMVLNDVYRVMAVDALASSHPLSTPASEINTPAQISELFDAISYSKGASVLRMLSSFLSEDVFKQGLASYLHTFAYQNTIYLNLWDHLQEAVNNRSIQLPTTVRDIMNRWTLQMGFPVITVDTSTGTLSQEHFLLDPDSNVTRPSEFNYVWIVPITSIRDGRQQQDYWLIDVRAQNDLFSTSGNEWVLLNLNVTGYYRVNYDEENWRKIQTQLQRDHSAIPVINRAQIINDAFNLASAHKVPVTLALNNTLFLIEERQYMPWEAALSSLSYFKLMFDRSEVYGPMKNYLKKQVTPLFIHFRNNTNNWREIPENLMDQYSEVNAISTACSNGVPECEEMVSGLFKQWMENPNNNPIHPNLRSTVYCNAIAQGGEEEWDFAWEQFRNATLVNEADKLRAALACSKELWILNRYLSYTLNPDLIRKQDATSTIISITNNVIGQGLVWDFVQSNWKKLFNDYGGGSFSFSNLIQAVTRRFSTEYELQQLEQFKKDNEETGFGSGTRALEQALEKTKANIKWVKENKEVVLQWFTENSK

- binding result: binds
Binder: {FITC-Ahx}-KDNRGNLLQCVCTGNGRGEWKC (cysteine pairing not given here)
